In this series the test system is Escherichia coli TOP10. Put plainly: shrunken log2 fold change of peptide-encoding DNA abundance (4.5 h post-induction vs induction); higher = less antimicrobial activity (less host growth inhibition). To be noted: time post-induction: 4.5 h; library: site-saturation at positions 5, 18, 19, 20.
On to RRIRARPPRLPRPRPRPDSQPRP, for which the “shrunken log2 fold change” value was 0.0999.

Turning to RRIRARPPRLPRPRPRPRDHPRP, the “shrunken log2 fold change” value stood at 0.158. Consider RRIRKRPPRLPRPRPRPQRQPRP, for which the “shrunken log2 fold change” value was determined as 0.265. The figure for RRIRQRPPRLPRPRPRPRKCPRP is 0.158. The figure for RRIRQRPPRLPRPRPRPVRSPRP is 0.32; for RRIRLRPPRLPRPRPRPNYSPRP it is -0.718; for RRIRCRPPRLPRPRPRPMHTPRP it is -0.106. The figure for RRIRMRPPRLPRPRPRPWYKPRP is 0.00884. As for RRIRQRPPRLPRPRPRPPRDPRP, the “shrunken log2 fold change” value was determined as 1.25. The figure for RRIRNRPPRLPRPRPRPICGPRP is -0.253; for RRIRHRPPRLPRPRPRPIIIPRP it is -0.247; for RRIRVRPPRLPRPRPRPRLCPRP it is 0.564. The same measure for RRIRFRPPRLPRPRPRPHDKPRP: -0.00198.

In the case of RRIRDRPPRLPRPRPRPCRHPRP, the “shrunken log2 fold change” value was 0.344.

Turning to RRIRTRPPRLPRPRPRPSDYPRP, the “shrunken log2 fold change” value was -0.278.

As to RRIRQRPPRLPRPRPRPPMAPRP, the “shrunken log2 fold change” value amounted to 0.0822. On to RRIRTRPPRLPRPRPRPNLLPRP, for which the “shrunken log2 fold change” value was -0.245. Consider RRIRQRPPRLPRPRPRPLVFPRP, for which the “shrunken log2 fold change” value was -0.0658.

Regarding RRIRTRPPRLPRPRPRPGIFPRP, the “shrunken log2 fold change” value is -0.146. The figure for RRIRRRPPRLPRPRPRPEWQPRP is 0.0758; for RRIRMRPPRLPRPRPRPMCFPRP it is 0.271; for RRIRFRPPRLPRPRPRPRYWPRP it is -0.0206.

For RRIRIRPPRLPRPRPRPMCQPRP, the “shrunken log2 fold change” value worked out at 0.0317. For RRIRFRPPRLPRPRPRPVMYPRP, the “shrunken log2 fold change” value was -0.195.

As for RRIRYRPPRLPRPRPRPDYVPRP, the “shrunken log2 fold change” value is -0.447. The same measure for RRIRCRPPRLPRPRPRPVRMPRP: -0.053; for RRIRCRPPRLPRPRPRPVYVPRP: -0.483. The figure for RRIRVRPPRLPRPRPRPDQCPRP is 0.0862; for RRIRTRPPRLPRPRPRPEGCPRP it is 0.214; for RRIRDRPPRLPRPRPRPDFLPRP it is 0.136.

As to RRIRMRPPRLPRPRPRPFHNPRP, the “shrunken log2 fold change” value was -0.00804. The same measure for RRIRYRPPRLPRPRPRPYYSPRP: 0.0106; for RRIRHRPPRLPRPRPRPGYIPRP: -0.176. The figure for RRIRERPPRLPRPRPRPFRLPRP is -0.51; for RRIRFRPPRLPRPRPRPSQHPRP it is -0.612; for RRIRSRPPRLPRPRPRPPDHPRP it is 0.202.

For RRIRFRPPRLPRPRPRPGKCPRP, the “shrunken log2 fold change” value is -0.421. On to RRIRIRPPRLPRPRPRPHSHPRP, for which the “shrunken log2 fold change” value is -0.912. The figure for RRIRQRPPRLPRPRPRPPMVPRP is -0.0885; for RRIRQRPPRLPRPRPRPNISPRP it is -0.565; for RRIRWRPPRLPRPRPRPELYPRP it is 0.541.

For the sequence RRIRLRPPRLPRPRPRPCEDPRP, the “shrunken log2 fold change” value was found to be 0.00976. The figure for RRIRQRPPRLPRPRPRPKCYPRP is -0.234; for RRIRVRPPRLPRPRPRPWYVPRP it is -0.971; for RRIRPRPPRLPRPRPRPAHQPRP it is 0.387.

For the sequence RRIRIRPPRLPRPRPRPHPQPRP, the “shrunken log2 fold change” value was -0.0725. As for RRIRFRPPRLPRPRPRPWTVPRP, the “shrunken log2 fold change” value is -0.0388. The same measure for RRIRLRPPRLPRPRPRPYAWPRP: 0.0863. Turning to RRIRLRPPRLPRPRPRPYPQPRP, the “shrunken log2 fold change” value is -0.364. The same measure for RRIRSRPPRLPRPRPRPKPMPRP: 0.2; for RRIRNRPPRLPRPRPRPRFRPRP: 0.0503. With RRIRWRPPRLPRPRPRPHFIPRP, the “shrunken log2 fold change” value was -0.349. In the case of RRIRVRPPRLPRPRPRPVFNPRP, the “shrunken log2 fold change” value is -0.392. The figure for RRIRWRPPRLPRPRPRPKFVPRP is 0.295; for RRIRTRPPRLPRPRPRPYKGPRP it is -0.0116; for RRIRNRPPRLPRPRPRPSSPPRP it is 0.0179. As to RRIRPRPPRLPRPRPRPSQDPRP, the “shrunken log2 fold change” value is -0.334. The figure for RRIRNRPPRLPRPRPRPAGCPRP is 0.00181.

For RRIRMRPPRLPRPRPRPWFAPRP, the “shrunken log2 fold change” value amounted to 0.18. The figure for RRIRSRPPRLPRPRPRPNICPRP is -0.0465; for RRIRTRPPRLPRPRPRPEMAPRP it is 0.484. The figure for RRIRDRPPRLPRPRPRPQYHPRP is -0.47; for RRIRGRPPRLPRPRPRPTTIPRP it is 0.623; for RRIRNRPPRLPRPRPRPEMAPRP it is 0.321.

On to RRIRNRPPRLPRPRPRPVLWPRP, for which the “shrunken log2 fold change” value was determined as 0.00135.

For RRIRQRPPRLPRPRPRPCPFPRP, the “shrunken log2 fold change” value is -0.505. The same measure for RRIRFRPPRLPRPRPRPRSPPRP: 1.06.

Take RRIRRRPPRLPRPRPRPHDYPRP: the “shrunken log2 fold change” value was -0.0628. The same measure for RRIRKRPPRLPRPRPRPQKYPRP: -0.184; for RRIRRRPPRLPRPRPRPLHKPRP: -0.191. The figure for RRIRCRPPRLPRPRPRPYGRPRP is -0.114; for RRIRTRPPRLPRPRPRPHFWPRP it is 0.0783. The same measure for RRIRFRPPRLPRPRPRPPIYPRP: -0.416; for RRIRNRPPRLPRPRPRPGMSPRP: -0.238; for RRIRGRPPRLPRPRPRPLYKPRP: 0.0468. For the sequence RRIRERPPRLPRPRPRPDPIPRP, the “shrunken log2 fold change” value is -0.224. Turning to RRIRERPPRLPRPRPRPRKIPRP, the “shrunken log2 fold change” value amounted to 0.0442. The figure for RRIRDRPPRLPRPRPRPNLAPRP is -0.0121; for RRIRSRPPRLPRPRPRPKQEPRP it is 0.286; for RRIRNRPPRLPRPRPRPMPHPRP it is -0.626. The figure for RRIRRRPPRLPRPRPRPHGVPRP is 0.055.

In the case of RRIRVRPPRLPRPRPRPMMLPRP, the “shrunken log2 fold change” value is -0.0127. On to RRIRRRPPRLPRPRPRPGTGPRP, for which the “shrunken log2 fold change” value worked out at 0.21.

Take RRIRKRPPRLPRPRPRPRCEPRP: the “shrunken log2 fold change” value was 0.568.

On to RRIRSRPPRLPRPRPRPDSRPRP, for which the “shrunken log2 fold change” value was determined as 0.148. The figure for RRIRHRPPRLPRPRPRPDSEPRP is -0.0112; for RRIRDRPPRLPRPRPRPMYDPRP it is -0.208. The same measure for RRIRRRPPRLPRPRPRPGLQPRP: -0.0644; for RRIRCRPPRLPRPRPRPWYLPRP: -0.0282; for RRIRNRPPRLPRPRPRPNSDPRP: -0.073. The same measure for RRIRARPPRLPRPRPRPCDHPRP: 0.0696.

Source of the values: the supplement of paper PMC9112550, “Optimization of the antimicrobial peptide Bac7 by deep mutational scanning” (BMC Biology, 2022).
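Further: peptides expressed intracellularly from a pBAD plasmid library in pooled LB shake-flask culture, induced with 0.3% L-arabinose, DNA abundance read by NGS, three biological replicates, DESeq2 with apeglm shrinkage.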
